Laboratory results: patent publication US20230062712A1 (SILVERBACK THERAPEUTICS, published 2023)
One block for each binder: values may come before it.

Assays:
rat ASGR1 on CHO-S cells = biological target: T1, rat ASGR1 on CHO-S cells (rat, UniProt P02706 1-284); assay: flow cytometry (Guava) on CHO-S cells transfected with rat ASGR1
T1 construct: whole, on cells
T1 sequence (looked up): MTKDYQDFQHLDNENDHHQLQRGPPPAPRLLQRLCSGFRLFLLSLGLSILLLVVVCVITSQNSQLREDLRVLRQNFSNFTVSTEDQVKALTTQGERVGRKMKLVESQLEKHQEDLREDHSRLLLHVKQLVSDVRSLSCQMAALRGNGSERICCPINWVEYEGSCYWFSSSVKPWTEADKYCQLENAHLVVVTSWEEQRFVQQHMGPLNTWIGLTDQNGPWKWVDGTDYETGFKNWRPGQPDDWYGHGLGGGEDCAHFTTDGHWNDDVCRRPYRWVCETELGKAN
Description: Anti-human ASGR1 antibodies of this disclosure were examined for cross-reactivity with Cynomolgus macaque and rat ASGR1. Briefly, sequence encoding Cynomolgus macaque or rat ASGR1 was transiently transfected into CHO-S cells. Transfected cells were before performing cell binding assay. A total of about 1.5×10⁴ transfected cells/well were added to 96-well V-bottom assay plate, incubated at 37° C., 5% CO2 for 48-72 hours, and then washed with culture medium before adding 100 μl of each ASGR1 antibody at different concentrations starting from 100 nM and 3-fold dilutions to a total of eight wells. The cells with antibody were incubated for 40 minutes at 4° C., then washed three times with 200 μl of fresh culture medium. To each well was added 50 μl PE conjugated goat anti-human Fc (SouthernBiotech) at 1:200 dilution in culture medium and then incubated at 4° C. for 20 minutes. After washing the plate once, the treated cells were resuspended in 200 μl culture medium and then the stained cells were analyzed on GUAVA® using Incyte software.

[1] = biological target: T2, His-tagged rat C-type lectin domain family 10 member A (CLEC10A) extracellular domain (rat) (UniProt P49301); assay: Octet, biotinylated mAb on streptavidin sensors, monomeric rat CLEC10A ECD from 200 nM in 3x dilutions, bivalent binding model
T2 sequence (looked up): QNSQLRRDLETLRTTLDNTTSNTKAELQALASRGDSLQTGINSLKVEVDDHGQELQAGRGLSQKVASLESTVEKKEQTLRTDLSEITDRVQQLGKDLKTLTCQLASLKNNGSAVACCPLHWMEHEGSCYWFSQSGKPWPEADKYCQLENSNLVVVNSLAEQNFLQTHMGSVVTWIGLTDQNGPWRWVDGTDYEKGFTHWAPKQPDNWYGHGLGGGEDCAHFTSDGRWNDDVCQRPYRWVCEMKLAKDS

[2] = biological target: T2, His-tagged rat C-type lectin domain family 10 member A (CLEC10A) extracellular domain (rat); assay: Octet, His-tagged rat CLEC10A ECD on Penta-His sensors, antibody at 25 µg/mL

B1: hzH8K-1 (antibody, V domains shown)
VH: QVQLQESGPGLVKPSQTLSLTCTVSGGSISSDYAWNWIRQHPGKGLEWIGYRSYRGSTSYNPSLKSRVTISVDTSKNQFSLKLSSVTAADTAVYYCARRGYYGSSSHWYFDVWGQGTTVTVSS
VL: DIQMTQSPSSLSASVGDRVTITCRASENIYSYLAWYQQKPGKAPKLLIYNAKTLAEGVPSRFSGSGSGTDFTLTISSLQPEDFATYYCQHHYGTPLTFGGGTKVEIK
notes: IgG1 and kappa constant regions
binding result (rat ASGR1 on CHO-S cells): no binding (tested: starting from 100 nM)

Kd [1]: 28.1 nM
Response (nm) [2]: 0.598 nm
B2: ASGR1 mAb-B (antibody, from another filing, V domains shown)
VH: EVQLVESGGGLVKPGGSLRLSCAASGFTFSSYSMNWVRQAPGKGLEWVSSISGSSSYIYYADSVKGRFTISRDNAKNSLYLQMNSLRAEDTAVYFCARGGSRGFDPWGQGTLVTVSS
VL: DIQMTQSPSSLSASVGDRVTITCRASQSITSYLNWYQQKPGKAPKLLIYTASSLQSGVPSRFSGSGSGTDFTLTISSLQPEDFATYYCQQSHSFPFTFGPGTKVDIK

B3: hzL4L-7 (antibody, V domains shown)
VH: QVQLQESGPGLVKPSQTLSLTCTVSGYSISSDYAWNWIRQHPGKGLEWIGYISYSGSTRYNPSLKSRVTITRDTSKNQFSLKLSSVTAADTAVYYCARRYRYDEGYGMDYWGQGTTVTVSS
VL: DIQMTQSPSSLSASVGDRVTITCRASENIYSNLAWYQQKPGKAPKLLIYAATNLADGVPSRFSGSGSGTDFTLTISSLQPEDFATYYCQHFWGTPPWTFGGGTKVEIK
notes: as for B1
binding result (rat ASGR1 on CHO-S cells): no binding (tested: starting from 100 nM)
